This data set addresses T1, BrxX G785T/N823S (TRD variant) (Escherichia coli HS, UniProt P0DUF9 1-1205, G785T;N823S).
T1 sequence: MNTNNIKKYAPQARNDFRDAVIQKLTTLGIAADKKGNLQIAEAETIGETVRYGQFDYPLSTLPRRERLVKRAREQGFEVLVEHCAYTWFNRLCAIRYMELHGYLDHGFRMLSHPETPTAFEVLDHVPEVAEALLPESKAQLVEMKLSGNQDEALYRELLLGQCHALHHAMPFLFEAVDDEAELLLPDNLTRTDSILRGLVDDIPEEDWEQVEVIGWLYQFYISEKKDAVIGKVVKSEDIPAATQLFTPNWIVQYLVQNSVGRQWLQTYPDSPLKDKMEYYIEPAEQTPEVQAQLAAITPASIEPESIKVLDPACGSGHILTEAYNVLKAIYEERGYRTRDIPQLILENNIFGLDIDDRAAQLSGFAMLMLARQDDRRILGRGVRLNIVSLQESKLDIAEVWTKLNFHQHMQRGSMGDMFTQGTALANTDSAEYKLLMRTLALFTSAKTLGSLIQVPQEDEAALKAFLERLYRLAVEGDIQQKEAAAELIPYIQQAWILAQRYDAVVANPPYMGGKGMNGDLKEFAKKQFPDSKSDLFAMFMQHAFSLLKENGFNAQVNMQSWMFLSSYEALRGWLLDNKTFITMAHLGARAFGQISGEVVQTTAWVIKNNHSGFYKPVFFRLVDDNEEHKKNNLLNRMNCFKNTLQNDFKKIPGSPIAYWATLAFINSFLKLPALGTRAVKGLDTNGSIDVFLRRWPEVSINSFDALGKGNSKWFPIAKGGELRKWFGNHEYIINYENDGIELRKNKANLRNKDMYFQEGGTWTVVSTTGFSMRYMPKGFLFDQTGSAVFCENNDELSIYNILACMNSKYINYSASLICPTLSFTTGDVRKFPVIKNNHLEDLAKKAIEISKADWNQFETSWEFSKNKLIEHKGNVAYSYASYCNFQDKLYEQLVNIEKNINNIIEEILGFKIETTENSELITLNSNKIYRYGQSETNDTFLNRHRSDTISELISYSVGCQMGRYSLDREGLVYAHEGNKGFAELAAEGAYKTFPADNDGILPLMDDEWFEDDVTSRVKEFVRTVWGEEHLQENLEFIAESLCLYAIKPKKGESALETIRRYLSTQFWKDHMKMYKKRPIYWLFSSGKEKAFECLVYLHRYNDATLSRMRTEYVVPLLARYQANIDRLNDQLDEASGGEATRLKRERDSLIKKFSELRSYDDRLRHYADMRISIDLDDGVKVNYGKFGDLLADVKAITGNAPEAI
Briefly: EMSA; decreased affinity; EMSA: 20 nM Cy5-DNA, 0.5x TBE pH 8.0, 35 mM NaCl, 5% glycerol, +/-0.5 mM SAM or SAH, 30 min, room temperature; BLI: 20 mM Tris-HCl pH 8.0, 100 mM NaCl, 0.05 mg/mL BSA, 0.02% Tween-20, +/-0.5 mM SAM, 30 C. Particulars: protein: recombinant; tags: N-His6; label: 5'-Cy5 on strand 1; blunt. A general note: Mobility shift assays separate free from complexed probe on a gel.

Numbering of substitutions follows the chain as printed.

B1: 40 bp BREX (dsDNA)
DNA 1: TCAGTAGTCAAGTCAGTGGTAAGGTCAGGACAGGAGTCAG
DNA 2: CTGACTCCTGTCCTGACCTTACCACTGACTTGACTACTGA
For B1, the binding result was “binds”.

B2: 40 bp BREX 4G (dsDNA)
DNA 1: B1 DNA 1 with A21G
DNA 2: B1 DNA 2 with T20C
As to B2, the binding result is “binds”.

B3: 40 bp BREX 4T (dsDNA)
DNA 1: B1 DNA 1 with A21T
DNA 2: B1 DNA 2 with T20A
Turning to B3, the binding result is “binds”.

B4: 40 bp BREX 4C (dsDNA)
DNA 1: B1 DNA 1 with A21C
DNA 2: B1 DNA 2 with T20G
As for B4, the binding result is “binds”.
